In one experiment the test system is TSG-37 (MT-II) mRNA. Kind of experiment: Northern blot analysis of TSG mRNA levels in FS-4 cells. The experiment is classed as cell-based, human. The settings on record: growth arrested FS-4 cells, 2 h; TNF 20 ng/ml, CHX 10 ug/ml, IFN-β 500 U/ml, IFN-γ 100 U/ml, IL-1-α 1 ng/ml, EGF 25 ng/ml, TGF-β 2 ng/ml, poly(I).poly(C) 50 ug/ml, TPA 100 ng/ml, A23187 1 uM, forskolin 10 uM, dBcAMP 100 uM, IBMX 100 uM. The procedure:
(§1) The human diploid FS-4 foreskin fibroblast cell line (Vilcek, J. et al, Proc. Natl. Acad. Sci. USA 70:3909-3913 (1973)) was used at passage level 15 in all experiments. FS-4 cells were grown in Eagle minimal essential medium (E-MEM) supplemented with 6 mM HEPES, 3 mM Tricine, 50 μg/ml gentamicin, and 5% heat inactivated (56° C., 30 min) fetal bovine serum (FBS; GIBCO Laboratories, Grand Island, N.Y.). For experiments, 4×10^6 cells were seeded in 175 cm^2 Falcon flasks, incubated at 37° C., and allowed to grow to confluence over 6 days. The confluent monolayers were washed once with phosphate buffered saline and replenished with E-MEM containing […] FBS. The cultures were incubated in this medium for another 72 h at 37° C. to let the cells become quiescent and then treated with the appropriate agents, as specified herein.
(§2) Cytoplasmic RNA was fractionated on a 1% agarose gel containing formaldehyde and blotted onto Zeta-probe blotting membranes (Bio-Rad Laboratories, Richmond, Calif.). Cytoplasmic RNA was loaded at 10 μg/lane. Prehybridization and hybridization of Northern blots were performed as described (Lin, J.-X. et al, supra). Filters were probed with 32P-labeled cDNA insert from recombinant M13 clones and/or with 32P-labeled internal reference pHe7 insert. Northern blots were quantified with a laser densitometer.
(§3) The increase in mRNA levels ranged from about 3-fold (TSG-21) to over 100-fold (TSG-6 and TSG-8).
(§4) Table 3 provides a summary of a large number of experiments in which levels of mRNAs corresponding to the 8 distinct TSG cDNAs were determined in FS-4 cells exposed to various agents by Northern blot analysis. Three of the mRNAs (corresponding to TSG-8, TSG-12 and TSG-14) were inducible by the protein synthesis inhibitor, cycloheximide (CHX). […] In contrast, induction of the remaining 3 mRNAs by TNF was inhibited or reduced in the presence of CHX. Five of the mRNAs were inducible by IFN-β, but only two of these responded to […]. Simultaneous treatment with IFN-β reduced inducibility of TSG-1 (=IL-8) mRNA by TNF, but increased the inducibility of TSG-6 and TSG-37 mRNAs. All mRNAs were inducible by IL-1 and by the doublestranded RNA poly(I)-poly(C) or the phorbol ester 12-O-tetradecanoyl phorbol 13-acetate (TPA), but the efficiency of induction by these agents varied. Epidermal growth factor (EGF) was moderately efficient in increasing TSG-21 (=collagenase) and TSG-27 (=stromelysin) mRNA levels, and weakly stimulated several other mRNAs. PDGF and transforming growth factor-β (TGF-β) were only weakly effective, as were dibutyryl cyclic AMP (dBcAMP) and the phosphodiesterase inhibitor, isobutyl methyl xanthine (IBMX).

Experiment [1] deals with TSG-21 (Collagenase) mRNA. The description is as above. The settings on record: growth arrested FS-4 cells, 16 h of treatment; TNF 20 ng/ml, CHX 10 ug/ml, IFN-β 500 U/ml, IFN-γ 100 U/ml, IL-1-α 1 ng/ml, EGF 25 ng/ml, TGF-β 2 ng/ml, poly(I).poly(C) 50 ug/ml, TPA 100 ng/ml, forskolin 10 uM, IBMX 100 uM. The experiment is classed as cell-based, human. The procedure:
as §1, §2, §3, §4

Another experiment concerns TSG-8 (MCAF) mRNA. Described as above. The experiment is classed as cell-based, human. The settings on record: growth arrested FS-4 cells, 2 h; TNF 20 ng/ml, CHX 10 ug/ml, IFN-β 500 U/ml, IFN-γ 100 U/ml, IL-1-α 1 ng/ml, EGF 25 ng/ml, TGF-β 2 ng/ml, poly(I).poly(C) 50 ug/ml, TPA 100 ng/ml, A23187 1 uM, forskolin 10 uM, dBcAMP 100 uM, IBMX 100 uM. As for the experimental part: as §1, §2, §3, §4

In a further experiment the test system is TSG-14 mRNA. The description is as above. The experiment is classed as cell-based, human. The settings on record: growth arrested FS-4 cells, 2 h; TNF 20 ng/ml, CHX 10 ug/ml, IFN-β 500 U/ml, IFN-γ 100 U/ml, IL-1-α 1 ng/ml, EGF 25 ng/ml, TGF-β 2 ng/ml, poly(I).poly(C) 50 ug/ml, TPA 100 ng/ml, A23187 1 uM, forskolin 10 uM, dBcAMP 100 uM, IBMX 100 uM. The procedure: as §1, §2, §3, §4

The next experiment deals with TSG-12 mRNA. Described as above. The settings on record: growth arrested FS-4 cells, 2 h; TNF 20 ng/ml, CHX 10 ug/ml, IFN-β 500 U/ml, IFN-γ 100 U/ml, IL-1-α 1 ng/ml, EGF 25 ng/ml, TGF-β 2 ng/ml, poly(I).poly(C) 50 ug/ml, TPA 100 ng/ml, A23187 1 uM, forskolin 10 uM, dBcAMP 100 uM, IBMX 100 uM. The experiment is classed as cell-based, human. As for the experimental part: as §1, §2, §3, §4

A further experiment has as its system TSG-1 (IL-8) mRNA. The experiment is described as above. The experiment is classed as cell-based, human. The settings on record: growth arrested FS-4 cells, 2 h; TNF 20 ng/ml, CHX 10 ug/ml, IFN-β 500 U/ml, IFN-γ 100 U/ml, IL-1-α 1 ng/ml, EGF 25 ng/ml, TGF-β 2 ng/ml, poly(I).poly(C) 50 ug/ml, TPA 100 ng/ml, A23187 1 uM, forskolin 10 uM, dBcAMP 100 uM, IBMX 100 uM. As for the experimental part: as §1, §2, §3, §4

Experiment [2] deals with TSG-27 (Stromelysin) mRNA. The description is as above. The settings on record: growth arrested FS-4 cells, 16 h of treatment; TNF 20 ng/ml, CHX 10 ug/ml, IFN-β 500 U/ml, IFN-γ 100 U/ml, IL-1-α 1 ng/ml, EGF 25 ng/ml, TGF-β 2 ng/ml, poly(I).poly(C) 50 ug/ml, TPA 100 ng/ml, forskolin 10 uM, IBMX 100 uM. The experiment is classed as cell-based, human. As for the experimental part:
as §1, §2, §3, §4

The test system of the next experiment is TSG-6 mRNA. The description is as above. The experiment is classed as cell-based, human. The settings on record: growth arrested FS-4 cells, 2 h; TNF 20 ng/ml, CHX 10 ug/ml, IFN-β 500 U/ml, IFN-γ 100 U/ml, IL-1-α 1 ng/ml, EGF 25 ng/ml, TGF-β 2 ng/ml, poly(I).poly(C) 50 ug/ml, TPA 100 ng/ml, A23187 1 uM, forskolin 10 uM, dBcAMP 100 uM, IBMX 100 uM. As for the experimental part: as §1, §2, §3, §4

For experiment [3], the target named is T1, IαI purified from human serum (Homo sapiens, UniProt P02760+P19823).
T1 construct: IαI is a complex protein in which the bikunin chain is linked to HC1 and HC2; supposed to determine the cleavage site for the C-terminal propeptide; from tissue; host or cells: human serum
Kind of experiment: TSG-6/IαI complex formation with purified proteins (SDS-PAGE, Western blot). The settings on record: preincubated 16 hrs. at 37° C. with chondroitinase, then mixed with the untreated partner protein. The experiment is classed as binding. The procedure: Purified recombinant TSG-6 protein (lane 1) and IαI purified from human serum (lane 2) were mixed and incubated for 2 min. (lane 3), 5 min. (lane 4), 10 min. (lane 5), 15 min. (lane 6), 30 min. (lane 7), or for 60 min. (lane 8) at 37° C. or for 60 min. at 0° C. (lane 9). The reaction mixtures were then separated by SDS-PAGE and subjected to Western blot analysis with rabbit anti-TSG-6 serum.
Four micrograms of purified IαI and 3 μg of purified TSG-6 protein were incubated separately for 16 hrs. at 37° C. in the absence or presence of 30 milliunits of chondroitin sulfate ABC lyase. […]
Analysis of TSG-6 Binding to Carrier Protein. To determine the presence of TSG-6 binding protein, samples to be analyzed were mixed with an equal volume of TSG-6-containing serum-free supernatants of TN-5 B insect cells infected with recombinant Baculovirus and incubated at 37° C. for 30-60 min. (Purified TSG-6 protein was used in some experiments, as indicated.) Thereafter, the mixtures were analyzed for the presence of the 120-kDa complex by Western blotting with purified rabbit antibody to TSG-6 as described earlier (Wisniewski et al, J. Immunol. 151:6593-6601 (1993)). […]
Rapid Complex Formation between Recombinant TSG-6 Protein and IαI Purified from Human Serum at 37° C. The 120kDa TSG-6/IαI complex formed readily when purified TSG-6 protein and purified IαI were incubated together at 37° C. but not at 0° C. […]
For orientation: A western blot detects proteins with antibodies after separation by electrophoresis.

This note sets out measurements from patent publication US6518401B2, “Tumor necrosis factor stimulated gene 6 (TSG-6) protein” (New York University, priority 1991, dated 2003).

T1 sequence (P98066 18-277 partner, one chain of several): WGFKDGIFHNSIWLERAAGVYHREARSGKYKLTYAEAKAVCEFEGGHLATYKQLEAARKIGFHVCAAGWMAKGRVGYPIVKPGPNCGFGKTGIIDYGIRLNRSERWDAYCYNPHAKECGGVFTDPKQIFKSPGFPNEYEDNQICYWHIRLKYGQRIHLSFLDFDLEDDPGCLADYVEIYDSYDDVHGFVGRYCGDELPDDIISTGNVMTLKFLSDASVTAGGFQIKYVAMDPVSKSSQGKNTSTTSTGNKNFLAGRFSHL

B1: IL-1: E. coli-derived recombinant human IL-1α (protein, UniProt P01583 113-271, looked up)
Interleukin-1 alpha: SAPFSFLSNVKYNFMRIIKYEFILNDALNQSIIRANDQYLTAAALHNLDEAVKFDMGAYKSSKDDAKITVILRISKTQLYVTAQDEDQPVLLKEMPEIPKTITGSETNLLFFWETHGTKNYFTSVAHPNLFIATKQDYWVCLAGGPPSITDFQILENQA
modifications: E. coli recombinant
notes: E. coli-derived recombinant human IL-1α
For the molecule B1, in the experiment with TSG-37 (MT-II) mRNA, the “Relative Increase in mRNA Level TSG-37 (MT-II)” value is recorded as “++”. Further, in experiment [1], the “Relative Increase in mRNA Level TSG-21 (Collagenase)” value is “++”. Also, in the experiment on TSG-8 (MCAF) mRNA, the “Relative Increase in mRNA Level TSG-8 (MCAF)” value is “++”. Also, in the experiment with TSG-14 mRNA, the “Relative Increase in mRNA Level TSG-14” value is on record as “++++”. Besides, the “Relative Increase in mRNA Level TSG-12” value with TSG-12 mRNA is reported as “++++”. The “Relative Increase in mRNA Level TSG-1 (IL-8)” value in the experiment with TSG-1 (IL-8) mRNA is given as “+”. Moreover, the “Relative Increase in mRNA Level TSG-27 (Stromelysin)” value in [2] is given as “++”. Further, in the experiment with TSG-6 mRNA, the “Relative Increase in mRNA Level TSG-6” value was “+”.

B2: IαI: inter-α-inhibitor purified from human serum; the TSG-6 binding protein (protein)
chain 1: AVLPQEEEGSGGGQLVTEVTKKEDSCQLGYSAGPCMGMTSRYFYNGTSMACETFQYGGCMGNGNNFVTEKECLQTCRTVAACNLPIVRGPCRAFIQLWAFDAVKGKCVLFPYGGCQGNGNKFYSEKECREYCGVPGDGDEELLRFSN
chain 2: SLPGESEEMMEEVDQVTLYSYKVQSTITSRMATTMIQSKVVNNSPQPQNVVFDVQIPKGAFISNFSMTVDGKTFRSSIKEKTVGRALYAQARAKGKTAGLVRSSALDMENFRTEVNVLPGAKVQFELHYQEVKWRKLGSYEHRIYLQPGRLAKHLEVDVWVIEPQGLRFLHVPDTFEGHFDGVPVISKGQQKAHVSFKPTVAQQRICPNCRETAVDGELVVLYDVKREEKAGELEVFNGYFVHFFAPDNLDPIPKNILFVIDVSGSMWGVKMKQTVEAMKTILDDLRAEDHFSVIDFNQNIRTWRNDLISATKTQVADAKRYIEKIQPSGGTNINEALLRAIFILNEANNLGLLDPNSVSLIILVSDGDPTVGELKLSKIQKNVKENIQDNISLFSLGMGFDVDYDFLKRLSNENHGIAQRIYGNQDTSSQLKKFYNQVSTPLLRNVQFNYPHTSVTDVTQNNFHNYFGGSEIVVAGKFDPAKLDQIESVITATSANTQLVLETLAQMDDLQDFLSKDKHADPDFTRKLWAYLTINQLLAERSLAPTAAAKRRITRSILQMSLDHHIVTPLTSLVIENEAGDERMLADAPPQDPSCCSGALYYGSKVVPDSTPSWANPSPTPVISMLAQGSQVLESTPPPHVMRVEND
chain 3: SKSSEKRQAVDTAVDGVFIRSLKVNCKVTSRFAHYVVTSQVVNTANEAREVAFDLEIPKTAFISDFAVTADGNAFIGDIKDKVTAWKQYRKAAISGENAGLVRASGRTMEQFTIHLTVNPQSKVTFQLTYEEVLKRNHMQYEIVIKVKPKQLVHHFEIDVDIFEPQGISKLDAQASFLPKELAAQTIKKSFSGKKGHVLFRPTVSQQQSCPTCSTSLLNGHFKVTYDVSRDKICDLLVANNHFAHFFAPQNLTNMNKNVVFVIDISGSMRGQKVKQTKEALLKILGDMQPGDYFDLVLFGTRVQSWKGSLVQASEANLQAAQDFVRGFSLDEATNLNGGLLRGIEILNQVQESLPELSNHASILIMLTDGDPTEGVTDRSQILKNVRNAIRGRFPLYNLGFGHNVDFNFLEVMSMENNGRAQRIYEDHDATQQLQGFYSQVAKPLLVDVDLQYPQDAVLALTQNHHKQYYEGSEIVVAGRIADNKQSSFKADVQAHGEGQEFSITCLVDEEEMKKLLRERGHMLENHVERLWAYLTIQELLAKRMKVDREERANLSSQALQMSLDYGFVTPLTSMSIRGMADQDGLKPTIDKPSEDSPPLEMLGPRRTFVLSALQPSPTHSSSNTQRLPDRVTGVDTD
Regarding B2, the “ability to form the TSG-6/IαI complex after pretreatment of the protein with chondroitin sulfate ABC lyase” value in [3] is on record as “no longer able to form a complex”.
